The target of the assay is protein A (UniProt P38507 37-327). Nature of the assay: ForteBio Octet HTX (filing: SPR), HCAb on AHC sensors, 1:1 model. On the technique in general: BLI is a label-free optical method that tracks binding on a fibre tip over time.

Bounds are passed on as bounds.

B1: CNG-HSA-101 (VHH)
VHH: KVQLVESGGGLVQPGGSLRLSCAASGFTFSSFGMTWVRQAPGKGLEWVSSISGSGSDTLYADSVRGRFTISRDNSKNTLYLQMNSLRAEDTAVYYCTIGGSLSPSSQGTLVTVSS
As for B1, the Kd was not above 1.84 nM and the koff is not above 0.0002 s⁻¹.

The Kd is the free concentration of one partner at which half of the binding sites on the other are occupied at equilibrium, for simple one-to-one binding. Read a low Kd as a tighter complex. The koff is the first-order rate constant of dissociation. High values mean fast dissociation, low ones slow dissociation.
